{"source": "patent US20120058906A1", "key": {"[1]": {"molecular_target": "rHuman CD44/Fc Chimera, CF (R&D Systems Cat#3660-CD) (human) (UniProt P16070)", "assay": "MSD ECL multi-spot, Fab 0.43 uM, blank 879"}, "[2]": {"molecular_target": "rHuman EGF R/Fc Chimera, CF (R&D Systems Cat#344-ER) (human) (UniProt P00533)", "assay": "MSD ECL multi-spot, Fab 0.43 uM, blank 879"}, "[3]": {"molecular_target": "rHuman HGF R/c-MET/Fc Chimera, CF (R&D Systems Cat#358-MT/CF) (human) (UniProt P08581)", "assay": "MSD ECL multi-spot, Fab 0.43 uM, blank 879"}, "[4]": {"molecular_target": "Recombinant Human DLL4 (R&D Systems Cat#1506-D4/CF) (human) (UniProt Q9NR61)", "assay": "ECL (MSD Multi-Spot) binding, antigen spotted on plate, Fab at […]; blank spot 250"}, "[5]": {"molecular_target": "Recombinant Human DLL4 (R&D Systems Cat#1506-D4/CF) (human) (UniProt Q9NR61)", "assay": "ECL (MSD Multi-Spot) binding, antigen spotted on plate, Fab at […]; blank spot 294"}, "[6]": {"molecular_target": "rHuman P-Cadherin/Fc Chimera, CF (R&D Systems Cat#861-PC) (human) (UniProt P22223)", "assay": "ECL (MSD Multi-Spot) binding, antigen spotted on plate, Fab at […]; blank spot 294"}, "[7]": {"molecular_target": "Recombinant Human DLL4 (R&D Systems Cat#1506-D4/CF) (human) (UniProt Q9NR61)", "assay": "ECL (MSD Multi-Spot) binding, antigen spotted on plate, Fab at 125 nM; blank spot 403"}, "[8]": {"molecular_target": "Recombinant Human DLL4 (R&D Systems Cat#1506-D4/CF) (human) (UniProt Q9NR61)", "assay": "ECL (MSD Multi-Spot) binding, antigen spotted on plate, Fab at 250 nM; blank spot 590"}, "[9]": {"molecular_target": "rHuman P-Cadherin/Fc Chimera, CF (R&D Systems Cat#861-PC) (human) (UniProt P22223)", "assay": "ECL (MSD Multi-Spot) binding, antigen spotted on plate, Fab at 250 nM; blank spot 590"}, "[10]": {"molecular_target": "Recombinant Human DLL4 (R&D Systems Cat#1506-D4/CF) (human) (UniProt Q9NR61)", "assay": "ECL (MSD Multi-Spot) binding, antigen spotted on plate, Fab at 500 nM; blank spot 680"}, "[11]": {"molecular_target": "rHuman P-Cadherin/Fc Chimera, CF (R&D Systems Cat#861-PC) (human) (UniProt P22223)", "assay": "ECL (MSD Multi-Spot) binding, antigen spotted on plate, Fab at 500 nM; blank spot 680"}, "[12]": {"molecular_target": "Recombinant Human DLL4 (R&D Systems Cat#1506-D4/CF) (human) (UniProt Q9NR61)", "assay": "ECL (MSD Multi-Spot) binding, antigen spotted on plate, Fab at 7.8 nM; blank spot 316"}, "[13]": {"molecular_target": "rHuman P-Cadherin/Fc Chimera, CF (R&D Systems Cat#861-PC) (human) (UniProt P22223)", "assay": "ECL (MSD Multi-Spot) binding, antigen spotted on plate, Fab at 7.8 nM; blank spot 316"}, "[14]": {"molecular_target": "Recombinant Human DLL4 (R&D Systems Cat#1506-D4/CF) (human) (UniProt Q9NR61)", "assay": "ECL (MSD Multi-Spot) binding, antigen spotted on plate, Fab at 62.5 nM; blank spot 268"}, "[15]": {"molecular_target": "rHuman P-Cadherin/Fc Chimera, CF (R&D Systems Cat#861-PC) (human) (UniProt P22223)", "assay": "ECL (MSD Multi-Spot) binding, antigen spotted on plate, Fab at 62.5 nM; blank spot 268"}, "[16]": {"molecular_target": "Recombinant Human DLL4 (R&D Systems Cat#1506-D4/CF) (human) (UniProt Q9NR61)", "assay": "ECL (MSD Multi-Spot) binding, antigen spotted on plate, Fab at 1000 nM; blank spot 1133"}, "[17]": {"molecular_target": "rHuman P-Cadherin/Fc Chimera, CF (R&D Systems Cat#861-PC) (human) (UniProt P22223)", "assay": "ECL (MSD Multi-Spot) binding, antigen spotted on plate, Fab at 1000 nM; blank spot 1133"}, "[18]": {"molecular_target": "rHuman P-Cadherin/Fc Chimera, CF (R&D Systems Cat#861-PC) (human) (UniProt P22223)", "assay": "ECL (MSD Multi-Spot) binding assay, antigen spotted on plate; Fab 6 nM; blank spot 191"}, "[19]": {"molecular_target": "rHuman P-Cadherin/Fc Chimera, CF (R&D Systems Cat#861-PC) (human) (UniProt P22223)", "assay": "ECL (MSD Multi-Spot) binding assay, antigen spotted on plate; Fab 17 nM; blank spot 143"}, "[20]": {"molecular_target": "rHuman P-Cadherin/Fc Chimera, CF (R&D Systems Cat#861-PC) (human) (UniProt P22223)", "assay": "ECL (MSD Multi-Spot) binding assay, antigen spotted on plate; Fab 51 nM; blank spot 335"}, "[21]": {"molecular_target": "rHuman P-Cadherin/Fc Chimera, CF (R&D Systems Cat#861-PC) (human) (UniProt P22223)", "assay": "ECL (MSD Multi-Spot) binding assay, antigen spotted on plate; Fab 154 nM; blank spot 447"}, "[22]": {"molecular_target": "rHuman ErbB2/Fc Chimera, CF (R&D Systems Cat#1129-ER) (human) (UniProt P04626)", "assay": "MSD ECL multi-spot assay, antigen spotted on plate, Fab […]; blank spot 2877"}, "[23]": {"molecular_target": "rHuman HGF R/c-MET/Fc Chimera, CF (R&D Systems Cat#358-MT/CF) (human) (UniProt P08581)", "assay": "MSD ECL multi-spot assay, antigen spotted on plate, Fab […]; blank spot 2877"}, "[24]": {"molecular_target": "rHuman IGF-1 sR (IGF-1 sR), CF (R&D Systems Cat#391-GR) (human) (UniProt P08069)", "assay": "MSD ECL multi-spot assay, antigen spotted on plate, Fab […]; blank spot 2877"}, "[25]": {"molecular_target": "rHuman EGF R/Fc Chimera, CF (R&D Systems Cat#344-ER) (human) (UniProt P00533)", "assay": "MSD ECL multi-spot assay, antigen spotted on plate, Fab 0.51 uM; blank spot 1393"}, "[26]": {"molecular_target": "rHuman Erythropoietin R/Fc Chimera, CF (R&D Systems Cat#963-ER) (human) (UniProt P19235)", "sequence (P19235 25-250, change not shown)": "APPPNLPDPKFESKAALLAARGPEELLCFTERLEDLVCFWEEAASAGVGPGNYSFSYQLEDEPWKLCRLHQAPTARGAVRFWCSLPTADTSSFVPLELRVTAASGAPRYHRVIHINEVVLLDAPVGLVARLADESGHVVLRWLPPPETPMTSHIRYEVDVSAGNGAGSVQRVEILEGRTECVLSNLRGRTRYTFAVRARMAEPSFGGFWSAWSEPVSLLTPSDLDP", "assay": "MSD ECL multi-spot assay, antigen spotted on plate, Fab 0.51 uM; blank spot 1393"}, "[27]": {"molecular_target": "rHuman Notch-1/Fc Chimera, CF (R&D Systems Cat#3647-TK) (human) (UniProt P46531)", "assay": "MSD ECL multi-spot assay, antigen spotted on plate, Fab 0.51 uM; blank spot 1393"}, "[28]": {"molecular_target": "rHuman P-Cadherin/Fc Chimera, CF (R&D Systems Cat#861-PC) (human) (UniProt P22223)", "assay": "MSD ECL multi-spot assay, antigen spotted on plate, Fab 0.51 uM; blank spot 1393"}}}
{"substance": "Fab VH1-46_IGHD6-13*01_IGHJ4*01 & B3_IGKJ1*01", "values": [{"measurement": "ECL signal", "setting": "[1]", "result": 1500}, {"measurement": "ECL signal", "setting": "[2]", "result": 1230}, {"measurement": "ECL signal", "setting": "[3]", "result": 1140}, {"measurement": "ECL signal", "setting": "[4]", "result": 528}, {"measurement": "ECL signal", "setting": "[5]", "result": 525}, {"measurement": "ECL signal", "setting": "[6]", "result": 971}, {"measurement": "ECL signal", "setting": "[7]", "result": 912}, {"measurement": "ECL signal", "setting": "[8]", "result": 1560}, {"measurement": "ECL signal", "setting": "[9]", "result": 2780}, {"measurement": "ECL signal", "setting": "[10]", "result": 2320}, {"measurement": "ECL signal", "setting": "[11]", "result": 3450}, {"measurement": "ECL signal", "setting": "[12]", "result": 407}, {"measurement": "ECL signal", "setting": "[13]", "result": 695}, {"measurement": "ECL signal", "setting": "[14]", "result": 715}, {"measurement": "ECL signal", "setting": "[15]", "result": 1170}, {"measurement": "ECL signal", "setting": "[16]", "result": 2780}, {"measurement": "ECL signal", "setting": "[17]", "result": 4500}]}
{"substance": "Fab VH5-51_IGHD5-18*01>3_IGHJ4*01 & V3-4_IGLJ1*01", "values": [{"measurement": "ECL signal", "setting": "[18]", "result": 358}, {"measurement": "ECL signal", "setting": "[19]", "result": 542}, {"measurement": "ECL signal", "setting": "[20]", "result": 854}, {"measurement": "ECL signal", "setting": "[21]", "result": 1730}]}
{"substance": "Fab VH1-46_IGHD6-13*01_IGHJ4*01 & A27_IGKJ1*01", "values": [{"measurement": "ECL signal", "setting": "[22]", "result": 6940}, {"measurement": "ECL signal", "setting": "[23]", "result": 6310}, {"measurement": "ECL signal", "setting": "[24]", "result": 5470}]}
{"substance": "Fab VH4-34_IGHD7-27*01_IGHJ4*01 & L5_IGKJ1*01", "values": [{"measurement": "ECL signal", "setting": "[25]", "result": 1810}, {"measurement": "ECL signal", "setting": "[26]", "result": 2560}, {"measurement": "ECL signal", "setting": "[27]", "result": 2880}, {"measurement": "ECL signal", "setting": "[28]", "result": 3180}]}
